Data as given in patent US20120045438A1 (Janssen / Centocor, published 2012).
Residue numbers refer to the chain shown, from its start.

Key:
[1] = target: T1, human IL-13 R130Q variant (R110Q of the mature chain) (human, UniProt P35225 35-146, Biotinylated on amines (NHS-LC-biotin, 4:1) in ELISA, panning and competition assays. The letters are unchanged.); test: single-point (10 nM) phage Fab ELISA on biotinylated IL-13 R130Q
T1 construct: R130Q counts from Met 1 of the signal peptide, R110Q on the mature chain; Bought from Peprotech; also called IL-13 R110Q; b-R130Q

[2] = target: T1, human IL-13 R130Q variant (R110Q of the …); test: Ra2 binding inhibition ELISA, mAb in crude HEK293 supernatant, IL-13 binding to IL-13Ra2

B1: Fab clone 2C06 (IL-13-62 library) (Fab, V domains shown)
VH: QVTLKESGPVLVKPTETLTLTCTVSGFSLSTYGMGVGWIRQPPGKALEWLAHIWWDDVKRYNPALKSRLTISKDTSKSQVVLTMTNMDPVDTATYYCARMGSDYDVWFDYWGQGTLVTVSS
VL: EIVLTQSPATLSLSPGERATLSCRASKSISKYLAWYQQKPGQAPRLLIYSGSTQQSGIPARFSGSGSGTDFTLTISSLEPEDFAVYYCQQHDYPYTFGQGTKLEIK
notes: Fab on phage pIX; del = residue deleted
- Signal (% of Lc16Hc7) [1]: 128%

B2: Fab clone 2B07 (IL-13-62 library) (Fab, V domains shown)
VH: B1 VH
VL: EIVLTQSPATLSLSPGERATLSCRASKSISKYLAWYQQKPGQAPRLLIYSGSTLQSGIPARFSGSGSGTDFTLTISSLEPEDFAVYYCQQHDWGPYTFGQGTKLEIK
notes: Fab on phage pIX
- Signal (% of Lc16Hc7) [1]: 144%

B3: mAb with Lc 2H08 (Lc6 variant) and Hc2 (antibody, V domains shown)
VH: B1 VH
VL: B2 VL with D92L, W93D, G94S
notes: human IgG1
- % Ra2 Binding Inhibition [2]: 62.3%

B4: Fab clone without printed name, L-CDR3 Q D G del (IL-13-62 library) (Fab, V domains shown)
VH: B1 VH
VL: B1 VL with Q54L, H91Q, Y93G
notes: as for B1
- Signal (% of Lc16Hc7) [1]: 184%

B5: Fab clone 1F05 (IL-13-62 library) (Fab, V domains shown)
VH: B1 VH
VL: B2 VL with D92V, W93G
notes: Fab on phage pIX
- Signal (% of Lc16Hc7) [1]: 144%

B6: mAb with Lc 3B06 (Lc6 variant) and Hc2 (antibody, V domains shown)
VH: B1 VH
VL: B2 VL with D92L, W93M
notes: human IgG1
- % Ra2 Binding Inhibition [2]: 74.3%

B7: mAb with Lc 5D03 (Lc6 variant) and Hc2 (antibody, V domains shown)
VH: B1 VH
VL: B2 VL with D92S, W93Y
notes: human IgG1
- % Ra2 Binding Inhibition [2]: 72.8%

B8: mAb with Lc 3G01 (Lc6 variant) and Hc2 (antibody, V domains shown)
VH: B1 VH
VL: B2 VL with H91P, D92L, W93D, G94V
notes: human IgG1
- % Ra2 Binding Inhibition [2]: 68.4%

B9: mAb with Lc 3D01 (Lc6 variant) and Hc2 (antibody, V domains shown)
VH: B1 VH
VL: B2 VL with D92V, W93G
notes: human IgG1
- % Ra2 Binding Inhibition [2]: 58.5%

B10: mAb with Lc 5H04 (Lc6 variant) and Hc2 (antibody, V domains shown)
VH: B1 VH
VL: B2 VL with W93Y, G94A
notes: human IgG1
- % Ra2 Binding Inhibition [2]: 66.1%

B11: Fab clone 1D01 (IL-13-62 library) (Fab, V domains shown)
VH: B1 VH
VL: B2 VL with D92S, W93Y
notes: Fab on phage pIX
- Signal (% of Lc16Hc7) [1]: 144%

B12: Fab clone 1C07 (IL-13-62 library) (Fab, V domains shown)
VH: B1 VH
VL: B2 VL with D92E, W93S
notes: Fab on phage pIX
- Signal (% of Lc16Hc7) [1]: 136%

B13: Fab clone 1A02 (IL-13-62 library) (Fab, V domains shown)
VH: B1 VH
VL: B2 VL with D92S, G94A
notes: Fab on phage pIX
- Signal (% of Lc16Hc7) [1]: 120%

B14: Fab clone 1G05 (IL-13-62 library) (Fab, V domains shown)
VH: B1 VH
VL: B2 VL with H91Q, W93I
notes: Fab on phage pIX
- Signal (% of Lc16Hc7) [1]: 144%

B15: Fab clone 1H02 (IL-13-62 library) (Fab, V domains shown)
VH: B1 VH
VL: B2 VL with D92L, W93L
notes: Fab on phage pIX
- Signal (% of Lc16Hc7) [1]: 148%

B16: Fab clone 1F11 (IL-13-62 library) (Fab, V domains shown)
VH: B1 VH
VL: B2 VL with D92S, W93V
notes: Fab on phage pIX
- Signal (% of Lc16Hc7) [1]: 108%

B17: Fab clone 1F04 (IL-13-62 library) (Fab, V domains shown)
VH: B1 VH
VL: B2 VL with D92S, W93S
notes: Fab on phage pIX
- Signal (% of Lc16Hc7) [1]: 108%

B18: Fab clone 1F12 (IL-13-62 library) (Fab, V domains shown)
VH: B1 VH
VL: B2 VL with D92N, W93H
notes: Fab on phage pIX
- Signal (% of Lc16Hc7) [1]: 100%

B19: mAb with Lc 3E03 (Lc6 variant) and Hc2 (antibody, V domains shown)
VH: B1 VH
VL: B2 VL with D92N, W93H
notes: human IgG1
- % Ra2 Binding Inhibition [2]: 70.9%

B20: Fab clone 1A07 (IL-13-62 library) (Fab, V domains shown)
VH: B1 VH
VL: B2 VL with W93N, G94S
notes: Fab on phage pIX
- Signal (% of Lc16Hc7) [1]: 120%

B21: Fab clone 1B05 (IL-13-62 library) (Fab, V domains shown)
VH: B1 VH
VL: B2 VL with W93R, G94D
notes: Fab on phage pIX
- Signal (% of Lc16Hc7) [1]: 108%

B22: mAb with Lc 2G01 (Lc6 variant) and Hc2 (antibody, V domains shown)
VH: B1 VH
VL: B2 VL with D92F
notes: human IgG1
- % Ra2 Binding Inhibition [2]: 81.2%

B23: mAb with Lc 2H09 (Lc6 variant) and Hc2 (antibody, V domains shown)
VH: B1 VH
VL: B2 VL with H91P, D92I, W93D, G94A
notes: human IgG1
- % Ra2 Binding Inhibition [2]: 62.5%

B24: Fab clone 1C06 (IL-13-62 library) (Fab, V domains shown)
VH: B1 VH
VL: B2 VL with D92S
notes: Fab on phage pIX
- Signal (% of Lc16Hc7) [1]: 172%

B25: mAb with Lc 3C06 (Lc6 variant) and Hc2 (antibody, V domains shown)
VH: B1 VH
VL: B2 VL with D92S, W93V
notes: human IgG1
- % Ra2 Binding Inhibition [2]: 62.1%

B26: Fab clone 1C09 (IL-13-62 library) (Fab, V domains shown)
VH: B1 VH
VL: B2 VL with Q38R, D92N, W93E, G94A
notes: Fab on phage pIX
- Signal (% of Lc16Hc7) [1]: 152%

B27: mAb with Lc 5B03 (Lc6 variant) and Hc2 (antibody, V domains shown)
VH: B1 VH
VL: B2 VL with Q38R, D92N, W93E, G94A
notes: human IgG1
- % Ra2 Binding Inhibition [2]: 63%

B28: mAb with Lc 3A04 (Lc6 variant) and Hc2 (antibody, V domains shown)
VH: B1 VH
VL: B2 VL with H91P, D92L, W93D, G94S
notes: human IgG1
- % Ra2 Binding Inhibition [2]: 67%

B29: mAb with Lc 2E12 (Lc6 variant) and Hc2 (antibody, V domains shown)
VH: B1 VH
VL: B2 VL with G94S
notes: human IgG1
- % Ra2 Binding Inhibition [2]: 83%

B30: Fab clone 1A06 (IL-13-62 library) (Fab, V domains shown)
VH: B1 VH
VL: B2 VL with D92E
notes: Fab on phage pIX
- Signal (% of Lc16Hc7) [1]: 122%

B31: mAb with Lc 3E05 (Lc6 variant) and Hc2 (antibody, V domains shown)
VH: B1 VH
VL: B2 VL with H91P, D92L, W93D, G94T
notes: human IgG1
- % Ra2 Binding Inhibition [2]: 70.8%

B32: Fab clone 1D02 (IL-13-62 library) (Fab, V domains shown)
VH: B1 VH
VL: B2 VL with S76G, G94S
notes: Fab on phage pIX
- Signal (% of Lc16Hc7) [1]: 117%

B33: Fab clone 2D04 (IL-13-62 library) (Fab, V domains shown)
VH: B1 VH
VL: B1 VL with Q54L, H91Q, Y93S
notes: as for B1
- Signal (% of Lc16Hc7) [1]: 100%

B34: Fab clone 1A05 (IL-13-62 library) (Fab, V domains shown)
VH: B1 VH
VL: B2 VL with W93Y, G94A
notes: Fab on phage pIX
- Signal (% of Lc16Hc7) [1]: 136%

B35: mAb with Lc 2H01 (Lc6 variant) and Hc2 (antibody, V domains shown)
VH: B1 VH
VL: B2 VL with G94E
notes: human IgG1
- % Ra2 Binding Inhibition [2]: 80%

B36: Fab clone 1D08 (IL-13-62 library) (Fab, V domains shown)
VH: B1 VH
VL: B2 VL with G94E
notes: Fab on phage pIX
- Signal (% of Lc16Hc7) [1]: 116%

B37: Fab clone 1H05 (IL-13-62 library) (Fab, V domains shown)
VH: B1 VH
VL: B2 VL with H91Q, W93Y
notes: Fab on phage pIX
- Signal (% of Lc16Hc7) [1]: 172%

B38: mAb with Lc 5A02 (Lc6 variant) and Hc2 (antibody, V domains shown)
VH: B1 VH
VL: B2 VL with H91Q, W93Y
notes: human IgG1
- % Ra2 Binding Inhibition [2]: 78.4%

B39: mAb with Lc 3A09 (Lc6 variant) and Hc2 (antibody, V domains shown)
VH: B1 VH
VL: B2 VL with W93L
notes: human IgG1
- % Ra2 Binding Inhibition [2]: 76.5%

B40: mAb with Lc 3A05 (Lc6 variant) and Hc2 (antibody, V domains shown)
VH: B1 VH
VL: B2 VL with W93N, G94S
notes: human IgG1
- % Ra2 Binding Inhibition [2]: 55.5%

B41: mAb with Lc 3G02 (Lc6 variant) and Hc2 (antibody, V domains shown)
VH: B1 VH
VL: B2 VL with D92L, W93N
notes: human IgG1
- % Ra2 Binding Inhibition [2]: 66.9%

B42: mAb with Lc 5G02 (Lc6 variant) and Hc2 (antibody, V domains shown)
VH: B1 VH
VL: B2 VL with S56G, D92L, W93D, G94S
notes: human IgG1
- % Ra2 Binding Inhibition [2]: 66.2%

B43: mAb with Lc 2E06 (Lc6 variant) and Hc2 (antibody, V domains shown)
VH: B1 VH
VL: B2 VL with D92S, W93S
notes: human IgG1
- % Ra2 Binding Inhibition [2]: 50.2%
